# ± gives the uncertainty stated by the source.
# B1: library; numbered along this chain (parent)
# chain: MEVVDPQQLGMFTEGELMSVGMDTFIHRIDSTEVIYQPRRKRAKLIGKYLMGDLLGEGSYGKVKEVLDSETLCRRAVKILKKKKLRRIPNGEANVKKEIQLLRRLRHKNVIQLVDVLYNEEKQKMYMVMEYCVCGMQEMLDSVPEKRFPVCQAHGYFCQLIDGLEYLHSQGIVHKDIKPGNLLLTTGGTLKISDLGVAEALHPFAADDTCRTSQGSPAFQPPEIANGLDTFSGFKVDIWSAGVTLYNITTGLYPFEGDNIYKLFENIGKGSYAIPGDCGPPLSDLLKGMLEYEPAKRFSIRQIRQHSWFRKKHPPAEAPVPIPPSPDTKDRWRSMTVVPYLEDLHGADEDEDLFDIEDDIIYTQDFTVPGQVPEEEASHNGQRRGLPKAVCMNGTEAAQLSTKSRAEGRAPNPARKACSASSKIRRLSACKQQ
# Variants of: B1
# Experiment: STK11 functional score (HeLa growth suppression), rescaled enrichment; synonymous median = 1, nonsense median = 0 (normalised score)
# Settings: with HeLa; variant type: missense
# Method in brief: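 Codon-randomised (POPCode) libraries of codon-optimised STK11 were integrated by Bxb1 at an AAVS1 landing pad in HeLa, in three regions each transfected three times. Integrants (BFP-negative, mCherry-positive) were FACS-sorted 4–5 days after electroporation and grown about two weeks; tiled gDNA amplicons were sequenced on NextSeq (~2 million reads per tile). The functional score is the wild-type-corrected post/pre-selection log ratio, rescaled to synonymous and nonsense medians, merged over codons and replicate transfections, with bootstrapped error.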
row,Variant,STK11 functional score
1,MEVVDPQQLGMFTEGELMSVGMDTFIHRIDSTEVIYQPRRKRAKLIGKYLMGDLLGEGSYGKVKEVLDSETLCRRAVKILKKKKLRRIPNGEANVKKEIQLLRRLRHKNVIQLVDVLYNEEKQKMYMVMEYCVCGMQEMLDSVPEKRFPVCQAHGYFCQLIDGLEYLHSQGIVHKDIKPGNLLLTTGGTLKISDLGVAEALHPFAADDTCRTSQGSPAFQPPEIANGLDTFSGFKVDRWSAGVTLYNITTGLYPFEGDNIYKLFENIGKGSYAIPGDCGPPLSDLLKGMLEYEPAKRFSIRQIRQHSWFRKKHPPAEAPVPIPPSPDTKDRWRSMTVVPYLEDLHGADEDEDLFDIEDDIIYTQDFTVPGQVPEEEASHNGQRRGLPKAVCMNGTEAAQLSTKSRAEGRAPNPARKACSASSKIRRLSACKQQ [I238R],-0.17 ± 0.18
2,MEVVDPQQLGMFTEGELMSVGMDTFIHRIDSTEVIYQPRRKRAKLIGKYLMGDLLGEGSYGKVKEVLDSETLCRRAVKILKKKKLRRIPNGEANVKKEIQLLRRLRHKNVIQLVDVLYNEEKQKMYMVMEYCVCGMQEMLDSVPEKRFPVCQAHGYFCQLIDGLEYLHSQGIVHKDIKPGNLLLTTGGTLKISDLGVAEALHPFAADDTCRTSQGSPAFQPPEIANGLDTFSGFKVDSWSAGVTLYNITTGLYPFEGDNIYKLFENIGKGSYAIPGDCGPPLSDLLKGMLEYEPAKRFSIRQIRQHSWFRKKHPPAEAPVPIPPSPDTKDRWRSMTVVPYLEDLHGADEDEDLFDIEDDIIYTQDFTVPGQVPEEEASHNGQRRGLPKAVCMNGTEAAQLSTKSRAEGRAPNPARKACSASSKIRRLSACKQQ [I238S],0.58 ± 0.16
3,MEVVDPQQLGMFTEGELMSVGMDTFIHRIDSTEVIYQPRRKRAKLIGKYLMGDLLGEGSYGKVKEVLDSETLCRRAVKILKKKKLRRIPNGEANVKKEIQLLRRLRHKNVIQLVDVLYNEEKQKMYMVMEYCVCGMQEMLDSVPEKRFPVCQAHGYFCQLIDGLEYLHSQGIVHKDIKPGNLLLTTGGTLKISDLGVAEALHPFAADDTCRTSQGSPAFQPPEIANGLDTFSGFKVDVWSAGVTLYNITTGLYPFEGDNIYKLFENIGKGSYAIPGDCGPPLSDLLKGMLEYEPAKRFSIRQIRQHSWFRKKHPPAEAPVPIPPSPDTKDRWRSMTVVPYLEDLHGADEDEDLFDIEDDIIYTQDFTVPGQVPEEEASHNGQRRGLPKAVCMNGTEAAQLSTKSRAEGRAPNPARKACSASSKIRRLSACKQQ [I238V],1.21 ± 0.16
4,MEVVDPQQLGMFTEGELMSVGMDTFIHRIDSTEVIYQPRRKRAKLIGKYLMGDLLGEGSYGKVKEVLDSETLCRRAVKILKKKKLRRIPNGEANVKKEIQLLRRLRHKNVIQLVDVLYNEEKQKMYMVMEYCVCGMQEMLDSVPEKRFPVCQAHGYFCQLIDGLEYLHSQGIVHKDIKPGNLLLTTGGTLKISDLGVAEALHPFAADDTCRTSQGSPAFQPPEIANGLDTFSGFKVDTWSAGVTLYNITTGLYPFEGDNIYKLFENIGKGSYAIPGDCGPPLSDLLKGMLEYEPAKRFSIRQIRQHSWFRKKHPPAEAPVPIPPSPDTKDRWRSMTVVPYLEDLHGADEDEDLFDIEDDIIYTQDFTVPGQVPEEEASHNGQRRGLPKAVCMNGTEAAQLSTKSRAEGRAPNPARKACSASSKIRRLSACKQQ [I238T],1.31 ± 0.54
5,MEVVDPQQLGMFTEGELMSVGMDTFIHRIDSTEVIYQPRRKRAKLIGKYLMGDLLGEGSYGKVKEVLDSETLCRRAVKILKKKKLRRIPNGEANVKKEIQLLRRLRHKNVIQLVDVLYNEEKQKMYMVMEYCVCGMQEMLDSVPEKRFPVCQAHGYFCQLIDGLEYLHSQGIVHKDIKPGNLLLTTGGTLKISDLGVAEALHPFAADDTCRTSQGSPAFQPPEIANGLDTFSGFKVDIHSAGVTLYNITTGLYPFEGDNIYKLFENIGKGSYAIPGDCGPPLSDLLKGMLEYEPAKRFSIRQIRQHSWFRKKHPPAEAPVPIPPSPDTKDRWRSMTVVPYLEDLHGADEDEDLFDIEDDIIYTQDFTVPGQVPEEEASHNGQRRGLPKAVCMNGTEAAQLSTKSRAEGRAPNPARKACSASSKIRRLSACKQQ [W239H],0.199 ± 0.11
6,MEVVDPQQLGMFTEGELMSVGMDTFIHRIDSTEVIYQPRRKRAKLIGKYLMGDLLGEGSYGKVKEVLDSETLCRRAVKILKKKKLRRIPNGEANVKKEIQLLRRLRHKNVIQLVDVLYNEEKQKMYMVMEYCVCGMQEMLDSVPEKRFPVCQAHGYFCQLIDGLEYLHSQGIVHKDIKPGNLLLTTGGTLKISDLGVAEALHPFAADDTCRTSQGSPAFQPPEIANGLDTFSGFKVDIISAGVTLYNITTGLYPFEGDNIYKLFENIGKGSYAIPGDCGPPLSDLLKGMLEYEPAKRFSIRQIRQHSWFRKKHPPAEAPVPIPPSPDTKDRWRSMTVVPYLEDLHGADEDEDLFDIEDDIIYTQDFTVPGQVPEEEASHNGQRRGLPKAVCMNGTEAAQLSTKSRAEGRAPNPARKACSASSKIRRLSACKQQ [W239I],-0.18 ± 0.095
7,MEVVDPQQLGMFTEGELMSVGMDTFIHRIDSTEVIYQPRRKRAKLIGKYLMGDLLGEGSYGKVKEVLDSETLCRRAVKILKKKKLRRIPNGEANVKKEIQLLRRLRHKNVIQLVDVLYNEEKQKMYMVMEYCVCGMQEMLDSVPEKRFPVCQAHGYFCQLIDGLEYLHSQGIVHKDIKPGNLLLTTGGTLKISDLGVAEALHPFAADDTCRTSQGSPAFQPPEIANGLDTFSGFKVDIKSAGVTLYNITTGLYPFEGDNIYKLFENIGKGSYAIPGDCGPPLSDLLKGMLEYEPAKRFSIRQIRQHSWFRKKHPPAEAPVPIPPSPDTKDRWRSMTVVPYLEDLHGADEDEDLFDIEDDIIYTQDFTVPGQVPEEEASHNGQRRGLPKAVCMNGTEAAQLSTKSRAEGRAPNPARKACSASSKIRRLSACKQQ [W239K],0.155 ± 0.096
8,MEVVDPQQLGMFTEGELMSVGMDTFIHRIDSTEVIYQPRRKRAKLIGKYLMGDLLGEGSYGKVKEVLDSETLCRRAVKILKKKKLRRIPNGEANVKKEIQLLRRLRHKNVIQLVDVLYNEEKQKMYMVMEYCVCGMQEMLDSVPEKRFPVCQAHGYFCQLIDGLEYLHSQGIVHKDIKPGNLLLTTGGTLKISDLGVAEALHPFAADDTCRTSQGSPAFQPPEIANGLDTFSGFKVDIMSAGVTLYNITTGLYPFEGDNIYKLFENIGKGSYAIPGDCGPPLSDLLKGMLEYEPAKRFSIRQIRQHSWFRKKHPPAEAPVPIPPSPDTKDRWRSMTVVPYLEDLHGADEDEDLFDIEDDIIYTQDFTVPGQVPEEEASHNGQRRGLPKAVCMNGTEAAQLSTKSRAEGRAPNPARKACSASSKIRRLSACKQQ [W239M],0.267 ± 0.092
9,MEVVDPQQLGMFTEGELMSVGMDTFIHRIDSTEVIYQPRRKRAKLIGKYLMGDLLGEGSYGKVKEVLDSETLCRRAVKILKKKKLRRIPNGEANVKKEIQLLRRLRHKNVIQLVDVLYNEEKQKMYMVMEYCVCGMQEMLDSVPEKRFPVCQAHGYFCQLIDGLEYLHSQGIVHKDIKPGNLLLTTGGTLKISDLGVAEALHPFAADDTCRTSQGSPAFQPPEIANGLDTFSGFKVDIGSAGVTLYNITTGLYPFEGDNIYKLFENIGKGSYAIPGDCGPPLSDLLKGMLEYEPAKRFSIRQIRQHSWFRKKHPPAEAPVPIPPSPDTKDRWRSMTVVPYLEDLHGADEDEDLFDIEDDIIYTQDFTVPGQVPEEEASHNGQRRGLPKAVCMNGTEAAQLSTKSRAEGRAPNPARKACSASSKIRRLSACKQQ [W239G],-0.0583 ± 0.093
10,MEVVDPQQLGMFTEGELMSVGMDTFIHRIDSTEVIYQPRRKRAKLIGKYLMGDLLGEGSYGKVKEVLDSETLCRRAVKILKKKKLRRIPNGEANVKKEIQLLRRLRHKNVIQLVDVLYNEEKQKMYMVMEYCVCGMQEMLDSVPEKRFPVCQAHGYFCQLIDGLEYLHSQGIVHKDIKPGNLLLTTGGTLKISDLGVAEALHPFAADDTCRTSQGSPAFQPPEIANGLDTFSGFKVDILSAGVTLYNITTGLYPFEGDNIYKLFENIGKGSYAIPGDCGPPLSDLLKGMLEYEPAKRFSIRQIRQHSWFRKKHPPAEAPVPIPPSPDTKDRWRSMTVVPYLEDLHGADEDEDLFDIEDDIIYTQDFTVPGQVPEEEASHNGQRRGLPKAVCMNGTEAAQLSTKSRAEGRAPNPARKACSASSKIRRLSACKQQ [W239L],0.325 ± 0.1
11,MEVVDPQQLGMFTEGELMSVGMDTFIHRIDSTEVIYQPRRKRAKLIGKYLMGDLLGEGSYGKVKEVLDSETLCRRAVKILKKKKLRRIPNGEANVKKEIQLLRRLRHKNVIQLVDVLYNEEKQKMYMVMEYCVCGMQEMLDSVPEKRFPVCQAHGYFCQLIDGLEYLHSQGIVHKDIKPGNLLLTTGGTLKISDLGVAEALHPFAADDTCRTSQGSPAFQPPEIANGLDTFSGFKVDIDSAGVTLYNITTGLYPFEGDNIYKLFENIGKGSYAIPGDCGPPLSDLLKGMLEYEPAKRFSIRQIRQHSWFRKKHPPAEAPVPIPPSPDTKDRWRSMTVVPYLEDLHGADEDEDLFDIEDDIIYTQDFTVPGQVPEEEASHNGQRRGLPKAVCMNGTEAAQLSTKSRAEGRAPNPARKACSASSKIRRLSACKQQ [W239D],-0.00743 ± 0.45
12,MEVVDPQQLGMFTEGELMSVGMDTFIHRIDSTEVIYQPRRKRAKLIGKYLMGDLLGEGSYGKVKEVLDSETLCRRAVKILKKKKLRRIPNGEANVKKEIQLLRRLRHKNVIQLVDVLYNEEKQKMYMVMEYCVCGMQEMLDSVPEKRFPVCQAHGYFCQLIDGLEYLHSQGIVHKDIKPGNLLLTTGGTLKISDLGVAEALHPFAADDTCRTSQGSPAFQPPEIANGLDTFSGFKVDICSAGVTLYNITTGLYPFEGDNIYKLFENIGKGSYAIPGDCGPPLSDLLKGMLEYEPAKRFSIRQIRQHSWFRKKHPPAEAPVPIPPSPDTKDRWRSMTVVPYLEDLHGADEDEDLFDIEDDIIYTQDFTVPGQVPEEEASHNGQRRGLPKAVCMNGTEAAQLSTKSRAEGRAPNPARKACSASSKIRRLSACKQQ [W239C],0.0722 ± 0.1
13,MEVVDPQQLGMFTEGELMSVGMDTFIHRIDSTEVIYQPRRKRAKLIGKYLMGDLLGEGSYGKVKEVLDSETLCRRAVKILKKKKLRRIPNGEANVKKEIQLLRRLRHKNVIQLVDVLYNEEKQKMYMVMEYCVCGMQEMLDSVPEKRFPVCQAHGYFCQLIDGLEYLHSQGIVHKDIKPGNLLLTTGGTLKISDLGVAEALHPFAADDTCRTSQGSPAFQPPEIANGLDTFSGFKVDIASAGVTLYNITTGLYPFEGDNIYKLFENIGKGSYAIPGDCGPPLSDLLKGMLEYEPAKRFSIRQIRQHSWFRKKHPPAEAPVPIPPSPDTKDRWRSMTVVPYLEDLHGADEDEDLFDIEDDIIYTQDFTVPGQVPEEEASHNGQRRGLPKAVCMNGTEAAQLSTKSRAEGRAPNPARKACSASSKIRRLSACKQQ [W239A],0.388 ± 0.093
14,MEVVDPQQLGMFTEGELMSVGMDTFIHRIDSTEVIYQPRRKRAKLIGKYLMGDLLGEGSYGKVKEVLDSETLCRRAVKILKKKKLRRIPNGEANVKKEIQLLRRLRHKNVIQLVDVLYNEEKQKMYMVMEYCVCGMQEMLDSVPEKRFPVCQAHGYFCQLIDGLEYLHSQGIVHKDIKPGNLLLTTGGTLKISDLGVAEALHPFAADDTCRTSQGSPAFQPPEIANGLDTFSGFKVDIESAGVTLYNITTGLYPFEGDNIYKLFENIGKGSYAIPGDCGPPLSDLLKGMLEYEPAKRFSIRQIRQHSWFRKKHPPAEAPVPIPPSPDTKDRWRSMTVVPYLEDLHGADEDEDLFDIEDDIIYTQDFTVPGQVPEEEASHNGQRRGLPKAVCMNGTEAAQLSTKSRAEGRAPNPARKACSASSKIRRLSACKQQ [W239E],-0.254 ± 0.099
